From patent US7985736B2, “High throughput screen utilizing newly discovered intramolecular neuronal calcium channel interactions to discover new analgesics” (The John Hopkins University, priority 2004, dated 2011) come the findings set out here.

Series [1] deals with T1, N-type (α1B) Ca2+ channels (Homo sapiens, UniProt Q00975).
T1 construct: transferred by EcoRI and Bgl II sites into the full-length α1B construct; expressed in transfected cells; host or cells: HEK293
Put plainly: Whole-cell G/Q analysis and prepulse facilitation of recombinant N-type channels coexpressed with peptide in HEK293 cells. It is filed as cell-based. The conditions noted are these: for Effect on G/Q slope (Gmax-Qmax relation), with Gβγ: peptide coexpressed with channels and Gβγ, Gmax after 100 mV prepulse. From the text: FIG. 3A illustrates an approach for N-type channels without Gβγ coexpression. Exemplar currents activated quickly and were barely facilitated by strong prepulse depolarization (FIG. 3A, left). The slight residual prepulse facilitation reflects basal endogenous Gβγ activation. To estimate open probability, two intermediary parameters were specified. First, to gauge the number of channels in a cell (Nchannel), the channel gating current at the reversal potential for ionic current were isolated (FIG. 3A, middle left) (Jones et al., 1999). The area under this current yields the maximal gating charge Qmax, where Qmax=Nchannel×qmax, and qmax is the maximal gating charge per channel. Second, Gmax for a given cell, the maximal ionic current conductance determined as the slope of the peak current-voltage relation at depolarized potentials were determined (FIG. 3A, middle right, line). Here and throughout, current-voltage relations were determined after a 100 mV prepulse, which transiently relieves all G protein inhibition (Colecraft et al., 2000), thus eliminating these inhibitory effects in the estimate of Gmax. Accordingly, Gmax=Nchannel×Po,max×g, where Po,max is the maximal channel open probability at saturating de-polarization, and g is the conductance of a single open channel. In combination, then, a plot of Gmax versus Qmax for multiple cells ([…]) would describe a linear relation with slope equal to Po,max×g/qmax. Because g and qmax are unchanged by G protein modulation (Colecraft et al., 2001; Jones et al., 1997; Patil et al., 1996), this slope (G/Q=0.44±0.03 nS/fC) is proportional to Po,max . . . FIG. 3B documents the supporting results for N-type channels coexpressed with Gβγ. Gmax determined after prepulse de-polarization, when plotted against Qmax, specifies an identical slope to that without Gβγ (FIG. 3B, right, G/Q=0.43±0.04 nS/fC). […] Free NTB peptide with α1B channels. Initially, an NTB-CFP peptide was employed to visually confirm expression was coexpressed. […] By contrast, coexpressing channels with NTB-CFP and Gβγ produced remarkable effects (FIG. 3D). […] More telling were small ionic current amplitudes despite gating current magnitudes on par with controls (FIG. 3D, middle panels). Consequently, there was a significant ^w6-fold depression of the Gmax-Qmax plot (FIG. 3D, right). If NTB-CFP were simply chelating Gβγ (FIG. 2C), the G/Q slope would be unchanged from control. Instead, the suppression of G/Q indicates constitutive inhibition of channel opening.
Cells were transiently transfected and cultured in 10 cm plates (Brody et al., 1997). For 2+Ca^2+ channels, 8 μg was used of each of cDNAs of the desired a1, rat brain β2a (Perez-Reyes et al., 1992), and rat brain a^28 (Tomlinson et al., 1993) subunits; along with 2 μg T-antigen cDNA. N-type α1B, human origin (NM000718); L-type α1C, rabbit (Wei et al., 1991) (X15539). Gβγ coexpressed with 4 μg each of Gβ1 (Sugimoto et al., 1985) and Gγ2 (Gautam et al., 1990). For coexpression of N-terminal peptides, channel subunit cDNA reduced to 6 μg, while adding 14 μg peptide cDNA. For receptor experiments, 0.5 μg cDNA for m2R (below) applied with other cDNAs.
Whole-cell current records were made with Axopatch 200B (Axon Instruments, Calif.), 1-3 days posttransfection. Pipets, 1.5-3 MΩ before 60-75% series resistance compensation. Internal solution: 135 mM CsMeSO4, 5 mM CsCl, 10 mM EGTA, 10 mM HEPES, 1 mM MgCl2, and 4 mM MgATP. External solution: 150 mM TEAMeSO4, 10 mM HEPES, 2 mM CaCl2, and 1 mM MgCl2. During constitutive inhibition (or as noted for some chimeras), 20 mM BaCl2 was substituted for 2 mM CaCl2, and the resulting solution was diluted 1.08×. To compare across external solutions, a conversion factor of 3.18 was used. Currents and conductances with 20 mM Ba^2+ were thus scaled×1/3.18 to facilitate uniform comparison of values, as if all data had been collected with 2 mM Ca^2+. When applied, conversion is denoted by asterisk (*). […]

A further series has as its target T2, I-II loop of α1B (I-IIB) (Homo sapiens, UniProt Q00975).
T2 construct: I-IIB(357-482)-pGADT7 & lam-pGBKT7; expressed in transfected cells; host or cells: AH109 yeast
In words: Yeast two-hybrid assay, NT peptides versus I-IIB. The following applies: NT segment in pGBKT7, I-IIB in pGADT7. It is filed as binding. From the text:
(§1) For yeast two-hybrid assays, a PCR fragment encoding one partner was fused, in-frame, with the GAL4 DNA binding domain (BD) in pGBKT7 (Clontech, Palo Alto, Calif.). The other element was fused, in-frame, with the GAL4 activation domain (AD) in pGADT7. For specific residues, see Supplemental Data (section 2). For electrophysiology, NT peptides lacking fluorophore tag were PCR amplified and cloned in pcDNA3. NTB peptide residues, 1-95; NTC residues, […]. Throughout, all segments subject to PCR or QuikChange were verified in their entirety by sequencing.
The Matchmaker GAL4 Two-Hybrid System 3 was used (Clontech, Palo Alto, Calif.). AH109 yeast were transformed with pGBKT7/pGADT7-based constructs (Yeastmaker Yeast Transformation System 2 kit, Clontech). After 5-8 days, growth on -leucine/-trytophan plates confirmed transformation of both plasmids. If partners interact, GAL4 BD/AD would complex, activating reporter genes (HIS3, ADE2, lacZ, and MEL1), for which assays are detailed in the Supplemental Data (section 2.1).
As a ‘medium’ stringency assay, expression of the lacZ gene was tested for encoding β-galactosidase, performing a filter lift with application of blue chromogenic substrate (Clontech-Laboratories, 1999). After the filter lift, original plates were re-grown for 2-3 days at 30° C. Filter paper was then used to replicate colonies onto a high stringency plate (-adenine/-histidine/-leucine/-trytophan). These plates were then incubated at 30° C. for 5-8 days. Survival on high stringency plates indicates production of both adenine and histidine, from transcription of the ADE2 and HIS3 genes, respectively. The percentage of colonies that turned blue in the filter lift assay, along with the percentage of colonies that survived on high stringency plates, was recorded for each pairing. Experiments were repeated at least three times. False positives were controlled for by testing each segment in pGBKT7 against empty pGADT7, and each segment in pGADT7 against lamin C in pGBKT7 (lamin C interacts with few proteins). Average sum of these backgrounds was subtracted from B to produce the net interaction parameter ΔB (FIG. 2).

For the next series, the target named is T3, I-II loop of α1C (I-IIC) (Oryctolagus cuniculus, UniProt P15381).
T3 construct: I-IIC (436-554)/pGBKT7; expressed in transfected cells; host or cells: AH109 yeast
Put plainly: Yeast two-hybrid assay, NT peptides versus I-IIC. It is filed as binding, rabbit. The following applies: NT segment in pGBKT7, I-IIC in pGADT7.
Description: as §1
The Matchmaker GAL4 Two-Hybrid System 3 was used (Clontech, Palo Alto, Calif.). AH109 yeast were transformed with pGBKT7/pGADT7-based constructs (Yeastmaker Yeast Transformation System 2 kit, Clontech). After 5-8 days, growth on -leucine/-trytophan plates confirmed transformation of both plasmids. […]
As a ‘medium’ stringency assay, expression of the lacZ gene was tested for encoding β-galactosidase, performing a filter lift with application of blue chromogenic substrate (Clontech-Laboratories, 1999). […] The percentage of colonies that turned blue in the filter lift assay, along with the percentage of colonies that survived on high stringency plates, was recorded for each pairing. […]

Where “and” joins values, the source holds several entries; their conditions need not be identical. Identical values can stand only once.

T1 sequence (Q00975 whole entry, other chains not shown): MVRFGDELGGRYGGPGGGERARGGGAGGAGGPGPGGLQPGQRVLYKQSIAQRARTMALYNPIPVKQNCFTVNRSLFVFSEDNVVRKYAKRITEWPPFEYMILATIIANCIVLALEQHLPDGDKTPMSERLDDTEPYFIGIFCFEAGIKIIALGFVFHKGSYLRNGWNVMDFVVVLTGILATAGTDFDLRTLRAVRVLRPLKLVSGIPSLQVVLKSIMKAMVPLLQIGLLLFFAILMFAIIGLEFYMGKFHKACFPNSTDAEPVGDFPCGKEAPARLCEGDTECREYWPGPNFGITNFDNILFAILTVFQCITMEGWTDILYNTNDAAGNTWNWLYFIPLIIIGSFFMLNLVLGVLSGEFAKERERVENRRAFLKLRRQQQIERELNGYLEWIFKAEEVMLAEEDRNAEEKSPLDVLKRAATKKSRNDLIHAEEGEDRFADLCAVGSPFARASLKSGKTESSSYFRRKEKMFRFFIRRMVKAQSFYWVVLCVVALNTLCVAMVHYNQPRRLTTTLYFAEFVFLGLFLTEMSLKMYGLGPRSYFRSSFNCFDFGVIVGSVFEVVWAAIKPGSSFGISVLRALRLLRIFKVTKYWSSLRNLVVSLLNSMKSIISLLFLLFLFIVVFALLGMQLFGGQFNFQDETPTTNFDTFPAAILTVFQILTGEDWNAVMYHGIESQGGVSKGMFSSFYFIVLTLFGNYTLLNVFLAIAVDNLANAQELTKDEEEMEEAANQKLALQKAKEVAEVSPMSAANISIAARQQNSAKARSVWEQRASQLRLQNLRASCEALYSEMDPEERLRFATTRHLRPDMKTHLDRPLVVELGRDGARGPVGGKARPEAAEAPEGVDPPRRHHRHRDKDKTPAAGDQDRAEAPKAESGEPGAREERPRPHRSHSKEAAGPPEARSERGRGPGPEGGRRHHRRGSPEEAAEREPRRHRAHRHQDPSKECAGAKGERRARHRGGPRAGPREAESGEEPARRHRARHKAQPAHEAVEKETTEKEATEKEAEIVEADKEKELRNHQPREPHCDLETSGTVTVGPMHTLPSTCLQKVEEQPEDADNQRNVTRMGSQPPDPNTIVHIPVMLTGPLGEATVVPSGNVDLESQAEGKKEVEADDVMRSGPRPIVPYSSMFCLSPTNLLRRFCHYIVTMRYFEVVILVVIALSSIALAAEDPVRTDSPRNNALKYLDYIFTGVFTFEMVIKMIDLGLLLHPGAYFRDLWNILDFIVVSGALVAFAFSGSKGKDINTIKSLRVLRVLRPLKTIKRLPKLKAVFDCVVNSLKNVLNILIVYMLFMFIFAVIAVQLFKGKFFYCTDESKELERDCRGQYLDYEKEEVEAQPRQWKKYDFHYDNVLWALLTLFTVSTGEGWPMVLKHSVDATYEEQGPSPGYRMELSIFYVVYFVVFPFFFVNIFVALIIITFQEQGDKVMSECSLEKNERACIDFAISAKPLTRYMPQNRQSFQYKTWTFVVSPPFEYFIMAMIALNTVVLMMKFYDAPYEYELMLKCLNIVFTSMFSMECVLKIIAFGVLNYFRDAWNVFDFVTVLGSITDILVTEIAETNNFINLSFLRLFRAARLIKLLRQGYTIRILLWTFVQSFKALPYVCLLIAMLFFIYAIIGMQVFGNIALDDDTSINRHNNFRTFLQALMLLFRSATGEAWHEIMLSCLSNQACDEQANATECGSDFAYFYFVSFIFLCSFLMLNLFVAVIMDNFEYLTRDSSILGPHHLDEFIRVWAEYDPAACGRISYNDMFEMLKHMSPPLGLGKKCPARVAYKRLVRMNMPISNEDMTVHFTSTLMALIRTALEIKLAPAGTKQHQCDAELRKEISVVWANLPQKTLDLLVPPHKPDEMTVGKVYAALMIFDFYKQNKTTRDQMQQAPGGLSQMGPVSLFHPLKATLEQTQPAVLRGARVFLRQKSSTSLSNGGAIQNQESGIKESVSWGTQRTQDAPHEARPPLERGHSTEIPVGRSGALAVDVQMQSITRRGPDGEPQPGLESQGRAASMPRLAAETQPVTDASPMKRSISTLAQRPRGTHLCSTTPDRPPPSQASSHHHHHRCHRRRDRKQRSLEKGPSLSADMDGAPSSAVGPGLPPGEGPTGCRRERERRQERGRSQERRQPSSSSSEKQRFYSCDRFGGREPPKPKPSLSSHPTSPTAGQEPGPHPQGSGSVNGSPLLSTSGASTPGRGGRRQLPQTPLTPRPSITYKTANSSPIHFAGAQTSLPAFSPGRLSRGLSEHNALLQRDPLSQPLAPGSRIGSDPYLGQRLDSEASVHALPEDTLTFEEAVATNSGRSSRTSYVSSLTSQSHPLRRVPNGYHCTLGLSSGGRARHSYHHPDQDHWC
T1 sequence (P54290 25-944 partner limits assumed, other chains not shown): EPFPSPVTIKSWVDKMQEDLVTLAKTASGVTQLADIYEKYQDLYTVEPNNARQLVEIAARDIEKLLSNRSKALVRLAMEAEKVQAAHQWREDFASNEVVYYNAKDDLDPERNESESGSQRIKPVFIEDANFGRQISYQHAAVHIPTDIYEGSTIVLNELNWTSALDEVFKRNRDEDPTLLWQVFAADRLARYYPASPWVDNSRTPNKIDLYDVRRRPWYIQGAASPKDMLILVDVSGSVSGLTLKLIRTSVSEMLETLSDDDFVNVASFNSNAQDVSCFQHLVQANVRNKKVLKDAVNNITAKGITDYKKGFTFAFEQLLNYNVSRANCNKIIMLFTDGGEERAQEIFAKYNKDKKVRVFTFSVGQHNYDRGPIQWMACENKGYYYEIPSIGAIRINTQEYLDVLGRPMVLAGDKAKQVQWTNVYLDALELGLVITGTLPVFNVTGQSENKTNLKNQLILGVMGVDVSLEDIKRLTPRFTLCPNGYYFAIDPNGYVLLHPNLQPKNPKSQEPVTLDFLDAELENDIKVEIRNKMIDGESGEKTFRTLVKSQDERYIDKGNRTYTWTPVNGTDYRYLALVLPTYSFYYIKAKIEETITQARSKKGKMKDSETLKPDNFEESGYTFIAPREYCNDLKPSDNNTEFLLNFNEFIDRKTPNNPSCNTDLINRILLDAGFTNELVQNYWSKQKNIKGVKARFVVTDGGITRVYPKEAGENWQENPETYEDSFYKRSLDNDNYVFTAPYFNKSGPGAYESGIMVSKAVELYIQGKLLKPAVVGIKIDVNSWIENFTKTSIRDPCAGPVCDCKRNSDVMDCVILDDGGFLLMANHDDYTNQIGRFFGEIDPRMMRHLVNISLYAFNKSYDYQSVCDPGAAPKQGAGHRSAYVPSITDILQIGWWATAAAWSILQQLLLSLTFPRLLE
T1 sequence (P54290 945-1091 partner limits assumed, other chains not shown): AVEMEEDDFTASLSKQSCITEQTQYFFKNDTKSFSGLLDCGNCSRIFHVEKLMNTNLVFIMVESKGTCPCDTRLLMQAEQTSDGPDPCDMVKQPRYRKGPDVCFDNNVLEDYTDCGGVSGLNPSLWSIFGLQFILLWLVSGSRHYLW
T2 sequence (Q00975 357-482): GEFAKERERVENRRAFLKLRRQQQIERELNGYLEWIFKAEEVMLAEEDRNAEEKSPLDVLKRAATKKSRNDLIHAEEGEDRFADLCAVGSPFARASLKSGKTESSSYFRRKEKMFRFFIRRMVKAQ
T3 sequence (P15381 436-554): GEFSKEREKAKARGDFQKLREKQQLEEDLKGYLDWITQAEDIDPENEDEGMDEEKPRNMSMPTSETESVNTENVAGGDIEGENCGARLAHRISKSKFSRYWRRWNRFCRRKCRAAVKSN

“NTC: NH3 terminus of L-type channel α1C subunit, free peptide [reference compound]”: the “Effect on G/Q slope (Gmax-Qmax relation), with Gβγ” value in series [1] is listed as “had no effect”. The “Effect on G/Q slope and currents, without Gβγ” value in series [1] (peptide coexpressed with channels, absent Gβγ) is recorded as “had no effect”. The “Interaction with I-IIB (yeast two-hybrid, ΔB)” value with I-II loop of α1B (I-IIB) is listed as “failed to reveal an association”. In the series with I-II loop of α1C (I-IIC), the “Interaction with I-IIC (yeast two-hybrid)” value is “failed to reveal an association”.

B1: NTB: NH3 terminus of N-type channel α1B subunit, residues 1-95, expressed as free peptide (SEQ ID NO.: 1) (protein, listed as Homo sapiens)
chain: MVRFGDELGGRYGGPGGGERARGGGAGGAGGPGPGGLQPGQRVLYKQSIAQRARTMALYNPIPVKQNCFTVNRSLFVFSEDNVVRKYAKRITEWP
On to B1, for which, in series [1], the “DF (prepulse facilitation)” value is recorded as 2.64±0.18; the “Induction time of constitutive inhibition after receptor activation” value is 10 to 15 min and ~10 min; the “Reversal of constitutive inhibition on removal of carbachol” value is given as “did not reverse inhibition”; the “Effect on G/Q slope (Gmax-Qmax relation), with Gβγ” value is on record as “identical to those obtained with NTB-CFP”. Further, the “Functional profile with m2R, absent carbachol” value in series [1] (channels + m2R + NTB peptide, 0 min CCH) is listed as “indistinguishable from control N-type channels”. Further, the “G/Q slope with m2R and carbachol” value in series [1] (channels + m2R + free NTB peptide, carbachol ≧30 min (50 μM CCH)) was “marked suppression of the G/Q slope”. Besides, in series [1] (deduced from DF˜4 via FIG. 7B model, free NTB with Gβγ), the “Conversion to constitutively reluctant channels” value is on record as about 75%. In addition, in series [1] (free NTB with Gβγ), the “DF (degree of prepulse facilitation)” value is reported as about 4. The “Interaction with I-IIB (yeast two-hybrid, ΔB)” value with I-II loop of α1B (I-IIB) is “positive”. In addition, in the series with I-II loop of α1C (I-IIC), the “Interaction with I-IIC (yeast two-hybrid)” value is given as “failed to reveal an association”.
